Key:
[1] = molecular target: T1, ERA-CO glycoprotein (codon-optimized full-length rabies G glycoprotein, ERA strain, amino acids 1-524, … (rabies virus, ERA strain, UniProt P03524 20-524)); assay: flow cytometry on transfected 293T cells, PE anti-human IgG
T1 sequence: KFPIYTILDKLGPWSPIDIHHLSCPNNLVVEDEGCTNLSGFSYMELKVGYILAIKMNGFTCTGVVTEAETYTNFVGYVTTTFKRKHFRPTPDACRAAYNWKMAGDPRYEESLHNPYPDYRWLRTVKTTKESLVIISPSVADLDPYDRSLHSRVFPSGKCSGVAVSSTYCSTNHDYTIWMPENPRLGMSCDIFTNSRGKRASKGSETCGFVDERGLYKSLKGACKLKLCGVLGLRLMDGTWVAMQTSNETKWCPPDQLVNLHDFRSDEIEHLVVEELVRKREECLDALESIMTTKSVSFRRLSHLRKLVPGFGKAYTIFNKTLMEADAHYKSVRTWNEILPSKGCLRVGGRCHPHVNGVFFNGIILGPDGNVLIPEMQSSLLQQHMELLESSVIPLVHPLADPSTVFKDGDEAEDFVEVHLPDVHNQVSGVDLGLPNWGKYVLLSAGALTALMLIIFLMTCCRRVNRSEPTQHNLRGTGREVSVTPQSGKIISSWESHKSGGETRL

[2] = molecular target: T2, ERA-CO20-439 (secreted soluble ectodomain of codon-optimized ERA rabies G glycoprotein, Myc/His tagged) (rabies virus, ERA strain, UniProt P03524 20-439); assay: Biacore (SPR) on the ectodomain region of codon-optimized rabies G glycoprotein
T2 sequence: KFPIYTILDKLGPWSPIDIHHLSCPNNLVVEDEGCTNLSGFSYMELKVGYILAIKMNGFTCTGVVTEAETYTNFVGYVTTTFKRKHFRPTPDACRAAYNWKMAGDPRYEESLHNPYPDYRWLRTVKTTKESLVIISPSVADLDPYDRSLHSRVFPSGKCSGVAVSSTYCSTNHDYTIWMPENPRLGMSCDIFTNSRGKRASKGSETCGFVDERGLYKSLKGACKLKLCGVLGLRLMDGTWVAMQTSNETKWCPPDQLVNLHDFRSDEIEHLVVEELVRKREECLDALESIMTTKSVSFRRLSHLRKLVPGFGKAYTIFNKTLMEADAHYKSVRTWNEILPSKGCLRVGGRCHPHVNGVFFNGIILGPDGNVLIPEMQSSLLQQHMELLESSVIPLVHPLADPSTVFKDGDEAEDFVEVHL

B1: HuMab 17C7 (antibody, V domains shown)
VH: QVQLVESGGGVVQPGRSLRLSCAASGFTFSTYAMHWVRQAPGKGLEWVAVVSYDGRTKDYADSVKGRFTISRDNSKNTLYLQMNSLRTEDTAVYFCARERFSGAYFDYWGQGTLVTVSS
VL: EIVLTQSPATLSLSPGERATLSCRASQSVSSYLAWYQQKPGQAPRLLIYDASNRATGIPARFSGSGSGTDFTLTISSLEPEDFAVYSCQQRNNWPPTFGGGTKVEIK
EC50 (read off the curve) [1]: ~30 nM | Kd [2]: ≤ 13.6 nM
